Experimental data published in patent US12467929.

How the values were obtained:
[1] = biological target: UBE3A standard protein (ab206157, Abcam) (Homo sapiens (Human)) (UniProt Q05086); assay: Singulex sandwich; capture GTX101092; UBE3A 5000 pg/ml
[2] = biological target: UBE3A standard protein (Abcam, ab125736) (Homo sapiens (Human)) (UniProt Q05086); assay: Singulex sandwich; capture GTX10488; interpolated UBE3A 661.46 pg/mL
[3] = biological target: UBE3A standard protein (ab206157, Abcam) (Homo sapiens (Human)) (UniProt Q05086); assay: Singulex sandwich; capture GTX101092; UBE3A 156.25 pg/ml
[4] = biological target: UBE3A standard protein (ab206157, Abcam) (Homo sapiens (Human)) (UniProt Q05086); assay: Singulex sandwich; capture GTX101092; UBE3A 39.063 pg/ml
[5] = biological target: UBE3A standard protein (Abcam, ab125736) (Homo sapiens (Human)) (UniProt Q05086); assay: Singulex sandwich; capture GTX10488; interpolated UBE3A 78.6 pg/mL
[6] = biological target: UBE3A standard protein (Abcam, ab125736) (Homo sapiens (Human)) (UniProt Q05086); assay: Singulex sandwich; capture GTX10488; interpolated UBE3A 3.39 pg/mL
[7] = biological target: UBE3A standard protein (ab206157, Abcam) (Homo sapiens (Human)) (UniProt Q05086); assay: Singulex sandwich; capture GTX101092; UBE3A 19.531 pg/ml
[8] = biological target: UBE3A standard protein (ab206157, Abcam) (Homo sapiens (Human)) (UniProt Q05086); assay: Singulex sandwich; capture GTX101092; UBE3A 312.5 pg/ml
[9] = biological target: UBE3A standard protein (Abcam, ab125736) (Homo sapiens (Human)) (UniProt Q05086); assay: Singulex sandwich; capture GTX10488; interpolated UBE3A 31.06 pg/mL
[10] = biological target: UBE3A standard protein (Abcam, ab125736) (Homo sapiens (Human)) (UniProt Q05086); assay: Singulex sandwich; capture GTX10488; interpolated UBE3A 256.41 pg/mL
[11] = biological target: UBE3A standard protein (Abcam, ab125736) (Homo sapiens (Human)) (UniProt Q05086); assay: Singulex sandwich; capture GTX10488; interpolated UBE3A ND
[12] = biological target: UBE3A standard protein (Abcam, ab125736) (Homo sapiens (Human)) (UniProt Q05086); assay: Singulex sandwich; capture GTX10488; interpolated UBE3A 2039.33 pg/mL
[13] = biological target: UBE3A standard protein (ab206157, Abcam) (Homo sapiens (Human)) (UniProt Q05086); assay: Singulex sandwich; capture GTX101092; UBE3A 9.766 pg/ml
[14] = biological target: UBE3A standard protein (ab206157, Abcam) (Homo sapiens (Human)) (UniProt Q05086); assay: Singulex sandwich; capture GTX101092; UBE3A 1250 pg/ml
[15] = biological target: UBE3A standard protein (ab206157, Abcam) (Homo sapiens (Human)) (UniProt Q05086); assay: Singulex sandwich; capture GTX101092; UBE3A 2500 pg/ml
[16] = biological target: UBE3A standard protein (ab206157, Abcam) (Homo sapiens (Human)) (UniProt Q05086); assay: Singulex sandwich; capture GTX101092; UBE3A 78.125 pg/ml
[17] = biological target: UBE3A standard protein (ab206157, Abcam) (Homo sapiens (Human)) (UniProt Q05086); assay: Singulex sandwich; capture GTX101092; UBE3A 10000 pg/ml
[18] = biological target: UBE3A standard protein (Abcam, ab125736) (Homo sapiens (Human)) (UniProt Q05086); assay: Singulex sandwich; capture GTX10488; interpolated UBE3A 10.59 pg/mL

Q: Which results are given for “anti-UBE3A antibody H00007337-M02 (AbNova)”?
A: AvgDE [1]: 10700 DE; DE Mean [2]: 9340 DE; DE S/N [2]: 22.7; EP Mean [2]: 2.27e+06 EP; S-N [2]: 8460 DE; AvgDE [3]: 922 DE; AvgDE [4]: 289 DE; DE Mean [5]: 1770 DE; DE S/N [5]: 4.3; EP Mean [5]: 291000 EP; S-N [5]: 1170 DE; DE Mean [6]: 461 DE; DE S/N [6]: 1.1; EP Mean [6]: 71800 EP; S-N [6]: 13 DE; AvgDE [7]: 208 DE; AvgDE [8]: 1610 DE; DE Mean [9]: 925 DE; DE S/N [9]: 2.3; EP Mean [9]: 143000 EP; S-N [9]: 470 DE; DE Mean [10]: 4910 DE; DE S/N [10]: 11.9; EP Mean [10]: 926000 EP; S-N [10]: 4290 DE; DE S/N [11]: 1; DE Mean [12]: 13600 DE; DE S/N [12]: 33.1; EP Mean [12]: 5.69e+06 EP; S-N [12]: 13000 DE; AvgDE [13]: 112 DE; AvgDE [14]: 4130 DE; AvgDE [15]: 6430 DE; AvgDE [16]: 559 DE; AvgDE [17]: 12700 DE; DE Mean [18]: 585 DE; DE S/N [18]: 1.4; EP Mean [18]: 91300 EP; S-N [18]: 136 DE
